Reference: the nanobody polyreactivity screen of Harvey et al. (2022)

Test: yeast display, Sf9 membrane polyspecificity reagent, FACS + sequencing; frameworks hold sequencing errors
Procedure, shortened: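 A synthetic nanobody library was expressed on Saccharomyces cerevisiae BJ5465 by galactose induction for 36–48 hours. The library was stained for 1 hour at 4 °C with 10% biotinylated, detergent-solubilized Sf9 membrane reagent and enriched with streptavidin microbeads before FACS. Low and high (top ~1%) gates were set on anti-HA fluorescence for expression and streptavidin fluorescence for reagent binding, and each polyreactivity label reflects the gate of origin.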

Sequence | polyreactivity (PSR sort gate)
QVQLVESGGGLVQAGGSLRLSCAASGGTFYTNVMGWYRQAPGKERELVAAITRSGGSTHYADSVKGRFTISRDNAKNTVYLQMNSLKPEDTAVYYCAVGSPYYDGMDYWGQGTQVTVSS | low polyreactivity
QVQLVESGGGLVQAGGSLRLSCAASGGTFYTYAMGWYRQAPGKERELVAAISRSGGRTYYADSVKGRFTISRDNAKNTVYLQMNSLKPEDTAVYYCAAVRIARAVQDYDYWGQGTQVTVSS | high polyreactivity
QVQLVESGGGLVQAGGSLRLSCAASGGTFYVYAMGWYRQAPGKERELVAAISTSDGITYYADSVKGRFTISRDNAKNTVYLQMNSLNPEDTAVYYCAAVFFSSFTYAYDYWGQGTLVTVSS | high polyreactivity
QVQLVESGGGLVQAGGSLRLSCAASGGTIAYNAMGWYRQAPGKERELVAAISSSGGRTYYADSVKGRFTISRDNAKNTVYLQMNSLKPEDTAVYFCATPVNNGFDYWGQGTQVTLSS | high polyreactivity
QVQLVESGGGLVQAGGSLRLSCAASGGTIDNAMGWYRQAPGKERELVAAISKHGGRTYYADSVKGRFTISRDNAKNTVYLQMNSLKAEDTAVYYCAADAFRGFFWGQGTQVTVSS | high polyreactivity
QVQLVESGGGLVQAGGSLRLSCAASGGTIEYYAMGWYRQAPEKERELVAAISVSGGRTYYADSVKGRFTISRDNAKNTVYLQMNSLKPEDTAVYYCATDSRLWGQGTQVTVSS | high polyreactivity
QVQLVESGGGLVQAGGSLRLSCAASGGTIHSYAMGLYRQANGKERDLVAAISGSGGSTYYADSVKGRFTISRDNAKNTFYLQMNSLKPEDTAVYYCAARDWGDGSEYYYWGQGTQVTVSS | high polyreactivity
QVQLVESGGGLVQAGGSLRLSCAASGGTLYLYAMGWYRPAPGKERELVAAISYNGGSTYADSVKGRFTISRDNAKNTVYLQMNSLKPEDTAVYYCAADRSPRCLGGYWGQGTQVTVSS | low polyreactivity
QVQLVESGGGLVQAGGSLRLSCAASGGTLYRYAMGWYRQAPGKERELVAGISSSGGRTYYADSVKGRFTISRDNAKNTVYLQMNSLKPEDTAVYYCAKYWVSSYDYWGQGNQVTVSS | high polyreactivity
QVQLVESGGGLVQAGGSLRLSCAASGGTQRYYAMGWYRQAPGKEREFVASISRSGGSTYYADSVKGRFTISRDNAKNTVYLQMNSLKPEDTAVYYCAAYWSPGYTTRRGYWGQGTQVTVSS | high polyreactivity
QVQLVESGGGLVQAGGSLRLSCAASGGTSYAYTMGWYRQAPGKERELVAAISGSTGSTYYADSVKGRFTISRDNAKNTVYLQMNSLKPEDTAVYYCNADISSLYSLSWFRYWYDYWGQGTQVTVSS | low polyreactivity
QVQLVESGGGLVQAGGSLRLSCAASGGTYGTNAMGWYRQAPGKERELVAAITKTGVRTYYADSVKGRFTISRDNAKNTVYLQMNSLKPEDTAVYYCAAGNPAWPFNYWGQGTQVTVSS | high polyreactivity
QVQLVESGGGLVQAGGSLRLSCAASGGTYNSNAMGWYRQAPAKEREFVAAISSSGGSTYYADSVKGRFTISRDNAKNTVNLQMNSLKPEDTAVYYCAKRYPYPNCRFRFGYWGQGTQVTVSS | high polyreactivity
QVQLVESGGGLVQAGGSLRLSCAASGHIFFYYTMGWYRQAPGKERELVAGITIGGSTNYADSVKGRFTISRDNAKNTVYLQMNSVKPEDTAVYYCKVVKYVDIYSYWEYYYWGQGTQVTVSS | low polyreactivity
QVQLVESGGGLVQAGGSLRLSCAASGHIFPTNAMGWYRQAPGKERELVAVISESVGSTYYADSVKGRFTISRDNAKNTVYLQMNSLKPEDTAVYYCATQSRYPSLDADYDYWGQGTQVTVSS | low polyreactivity
QVQLVESGGGLVQAGGSLRLSCAASGHIFTRNAMGWYRQAPGKERELVAAISRTGGSTYYADSVKGRFTISRDNAKNSVYLQMNSLKPEDTAVYYCAKRRQASEDYWGQGTQVTVSS | high polyreactivity
QVQLVESGGGLVQAGGSLRLSCAASGIFGWNTMGWYRQAPGTERELVATISWGGGTTYYADSVKGRFTISRDNAKNTVYLQMNSLKPEDTAVYYCAKVYAVRIGLRYYYWGQGTQVTVSS | low polyreactivity
QVQLVESGGGLVQAGGSLRLSCAASGIFLGYAMGWYRQAPGKERELVAGISSGGGTYYADSVKGRFTISRDNAKNTVYLQMNSLKPEDTAVYYCNAASQYTFDSSFDYWGQGTQVTVSS | low polyreactivity
QVQLVESGGGLVQAGGSLRLSCAASGIFRGYAMGWYRQAPGKEREFVAAISRTGGGTYYADSVKGRFTISRDNAKNTVYLQMNSLKPEDTAVYYCAAVRKYDGQKFGYWGQGTQVTVSS | low polyreactivity
QVQLVESGGGLVQAGGSLRLSCAASGIFWYNMGWYRPAPGKERELVAAITASGGSRTYYADSVKGRFTISRDNAKNTVYLQMNSLKPEDTAVYYCAASSYSYLYYSWGQGTQVTVSS | high polyreactivity
QVQLVESGGGLVQAGGSLRLSCAASGIFWYYAMGWYRQAPGKERELVAAISSGGSTYYADSVKGRFTISRDNAKNTVSLQMNSLKPEDTAVYYCNAVYWKASHYGYGYWGQGTQVTVSS | high polyreactivity
QVQLVESGGGLVQAGGSLRLSCAASGIFYFYAMGWYRQAPGKERELVAAITSSGGNTTYADSVKGRFTISRDNAKNTVYLQMNSLKPEDTAVYYCNADYFQDRLDYWGQGTQVTVSS | low polyreactivity
QVQLVESGGGLVQAGGSLRLSCAASGIIFAFSAMGWYRQAPGKERELVAGITSGGDTYYADSVKGRFTISRDNAKNTVYLQMNSLKPEDTAVYYCAADVQYPNRAGWLYWYATNFDYWGQGTQVTVSS | high polyreactivity
QVQLVESGGGLVQAGGSLRLSCAASGIIFAGNAMGWYRQEPGKERELVAAISSGTTTNYADSVKGRFTISRDNAKNTVYLQMNSLKPEDTAVYYCAADDFPYKSDYWGQGTQVTVSS | low polyreactivity
QVQLVESGGGLVQAGGSLRLSCAASGIIFASNAMGWYRQAPGKERELVAAINRSGGSTYYADSVKGRFTISRDNAKNTVYLQMNSMKPEDTAVYYCAADYRFYSPTKYSYDYWGQGTLVTVSS | high polyreactivity
QVQLVESGGGLVQAGGSLRLSCAASGIIFATYAMGWYRQAPGKERELVAAISSGGRTYYADSVKGRFTISRDNAKNTVYFQMNSLKPEDTAVYYCAAKSGGRSSLYNYWGQGTQVTVSS | high polyreactivity
QVQLVESGGGLVQAGGSLRLSCAASGIIFAVYAMGWYRQAPGKERELVAAISTSGGRTYYADSVKGRFTISRDNAKNTVYLQMNSLKPEDTAVYYCAAEYVGKGTPDDYDYWGQGTQVTVSS | high polyreactivity
QVQLVESGGGLVQAGGSLRLSCAASGIIFAYYARRWYRHAPGKERELVAAISWSGTSTYYADSVKGRFTISRDNAKNTVYLQMNSLKPEDTAVYYCNAYGLYSDMDYWGQGTQVTVSS | high polyreactivity
QVQLVESGGGLVQAGGSLRLSCAASGIIFAYYDMGLYRKAPGKERELVAAISSTGSNTYYADSVKGRFTISRDNAKNTVYLQMNSLKPEDTAVYYCAAGYAYYIGHGDYWGQGTQVTVSS | high polyreactivity
QVQLVESGGGLVQAGGSLRLSCAASGIIFDDNAMGGYRQAPGKERELVAAITYSGGSTYYADSVKGRFTISRDKAKNTVYLQMNSLKPEDTAVYYCAADNRPIVGSYYYWGQGTQVTVSS | low polyreactivity
